Test: soluble on expression in E. coli; label from the status in PepcDB or PDB records

Sequence	soluble on expression in E. coli
AHHHHHHGSVEVKKHKFPGVYVVIDDDGSEKIATKNLVPGQRVYGERVIKWEGEEYRIWNPHRSKLGAAIVNGLKNFPIKPGKSVLYLGIASGTTASHVSDIVGWEGKIYGIEFSPRVLRELVPIVEERRNIIPILGDATKPEEYRALVTKVDVIFEDVAQPTQAKILIDNAKAYLKRGGYGMIAVKSRSIDVTKEPEQVFKEVERELSEYFEVIERLNLEPYEKDHALFVVRKP	soluble
SSAEVKVTGQNQEQFLLLAKSAKGAALATLIHQVLEAPGVYVFGELLDMPNVRELAESDFASTFRLLTVFAYGTYADYLAEARNLPPLTEAQKNKLRHLSVVTLAAKVKCIPYAVLLEALALRNVRQLEDLVIEAVYADVLRGSLDQRNQRLEVDYSIGRDIQRQDLSAIARTLQEWCVGCEVVLSGIEEQVSRANQHKEQQLGLKQQIESEVANLKKTIKVTTAAAAAATSQDPEQHLTELREPAPGTNQRQPSKKASKGKGLRGSAKIWSKSN	soluble
MTKNEIRKYILHKMKNFNKAEKRKADTWLRNQFFATEEYKEANAIALVLSFNHEVDTFSIIEQALMDHKRIFVPKMDYLNHQMTFKEIFNLKDIDVDNKGIYYPTSKGETTNNLDLIVVPGVGFQDDGYRIGYGGGYYDRFLANYQTKTISLLYDFQITSFEPESFDQPVDKLIIYQSALEHHHHHH	soluble
MGSDKIHHHHHHVLSTANITMQFGPKPLFENISVKFGGGNRYGLIGANGCGKSTFMKILGGDLEPSSGNVMLEPNIRLGKLRQDQFAYEDVRVLDVVMMGHAEMWAAMTERDAIYANPDATDDDYMHAAELEAKFAEYDGYTAEARAGELLLGIGIAIENHNGPMSNVAPGWKLRVLLAQALFSKPDVLLLDEPTNNLDINSIRWLEDVLNQYNSTMIIISHDRHFLNQVCTHMADMDFGTLKVYPGNYDDYMLASTQARERQQNANAKAKERVADLQDFVRRFSANKSKARQATSRLKMIDKIKIEEFKPSSRQNPFIRFEYEKKLHNIAVVAEKISKKYERTIFNDFSISVQPGERIAIIGENGAGKTTLLRSLLGKLELDHGTVKWAENANIGYMPQDTYEEFPDDVTLMEWIDVYRKEGDDEQMVRGTLGRLLFNADDIRKSVKVLSGGEKGRMIWGKLMLGRHNVLLMDEPTNHMDMESIESLQIALDKFEGTLIFVSHDREFVSGLANRIIEVKTDGTLNDFGGNYEDFLLSQGVQ	not soluble
MDMLNTLRDTLSSVQAELSTGVEKLRMNVSANIVAQQKVSTESVNEILNTSAGNELLQNFQNLITEVEENGAEGGRLANLCSTRMGRCQQMCKEKADAVMEIDEFLRNSVEFDKKIREINAQISKLTRFCNQTEQAMTYLEALCEVAHTEGEVDLIRQQAKSAATIVQIECESPSVLTSALRSRPEDAVKAQQEEVMLEEFLSSKNMQLP	not soluble
MGSDKIHHHHHHMRKKLISILVDGVSADTFEKHAHRLPNMRHLAERGLRVRRLKSAVPATSVPGRATMLTGVGPETHGIYGNHIFRGDASVAPLAEDLLVPTIATHARQAGLDVAAIGQALVNPRDTSVYVSPWWLRGFMTGYRFSKMVTPEALAASRAIHDPEDRLAKAGLTEMDAFRDAADGGAPHLISGLALDQFLNRAVVALLGSDRPPDLLLTEIEMPDAFQHYLGYDSPAGIWSVEFADMLIGNLLAVLERTGRREDYVIAVASDHGHGFVDTAIFPEAIIPDMHWMTEGASLYVSLKAAGDLERVTERLLPYGVELWNDHHVPENLRGTVAMFVAPPRHSFEERPSDASGPLVATGSPHLISTHGFRPGSPEDDRMFILSGGGIAPKVIKAADADQFAPTLASVLGLPLEPYAGRSLIAEESPIARSPQSLELHLK	not soluble
MRDGEGIWGRGRTGGHAHPKEAMHTTFFILGGTMLIGVISDTHLYDRAFELPKAVFDEFSNVDLIIHCGDVTDKEILDSLKDLAKVVAVKGNMDYLNLPRKEILEINDIKIGVIHGDVVYPRGDRLKLRLLGKEMGVDVLISGHTHTPFIDDCRDILLLNPGSPTVPRCPLKSIMKLSVEDKLEAKLIPIEE	soluble
KLIAATGCPTGIAHTFMAQEALEQAAKEKGVSIKVETHGQVGVENELTPAEIAGAKAVIIAADKDVQAERFAGKRVIEVSVADGIKKADQLIADALAGKGQIK	not soluble
MDIGDNSKFDSATDLPVEQEQEQETEQEGEPEESSEQDLVEEVDWKDIPVPADAGPNMKWEFQEISDNFEYEAPADNKGSEFLEKWDDFYHNAWAGPGLTEWKRDRSYVADGELKMWATRKPGSDKINMGCITSKTRVVYPVYIEARAKVMNSTLASDVWLLSADDTQEIDILEAYGADYSESAGKDHSYFSKKVHISHHVFIRDPFQDYQPKDAGSWFEDGTVWNKEFHRFGVYWRDPWHLEYYIDGVLVRTVSGKDIIDPKHFTNTTDPGNTEIDTRTGLNKEMDIIINTEDQTWRSSPASGLQSNTYTPTDNELSNIENNTFGVDWIRIYKPVEKLEHHHHHH	soluble
WLRPAFAGKTRLDALDEAAFEQAVKSLLSWTQHALIDRHVPAHIIVPSGMGRHIDYGLADDGTPQPPVLSVKLQELFGLPDTPRIAKNRIPLTLHLLSPGGRPLQVTQDLKSFWTNTYPEVKKEMKGRYPKHPWPDDPWTATATHRTKSPGK	not soluble
MNIIIATTKSWNIKNAQKFKKENESKYNTTIITNKDELTFEKVKLINPEYILFPHWSWIIPKEIFENFTCVVFHMTDLPFGRGGSPLQNLIERGIKKTKISAIKVDGGIDTGDIFFKRDLDLYGTAEEIFMRASKIIFNDMIPELLTKRPVPQKQEGEATVFQRRKPEQSEISPDFDLEKIYDYIRMLDGEGYPRAFIKYGKYRLEFSRASMKNGKIIADVEIIEGDENE	soluble
MDRMYEQNQMPHNNEAEQSVLGSIIIDPELINTTQEVLLPESFYRGAHQHIFRAMMHLNEDNKEIDVVTLMDQLSTEGTLNEAGGPQYLAELSTNVPTTRNVQYYTDIVSKHALKRRLIQTADSIANDGYNDELELDAILSDAERRILELSSSRESDGFKDIRDVLGQVYETAEELDQNSGQTPGIPTGYRDLDQMTAGFNRNDLIILAARPSVGKTAFALNIAQKVATHEDMYTVGIFSLEMGADQLATRMICSSGNVDSNRLRTGTMTEEDWSRFTIAVGKLSRTKIFIDDTPGIRINDLRSKCRRLKQEHGLDMIVIDYLQLIQGSGSRASDNRQQEVSEISRTLKALARELECPVIALSQLSRGVEQRQDKRPMMSDIRESGSIEQDADIVAFLYRDDYYNRGGDEDDDDDGGFEPQTNDENGEIEIIIAKQRNGPTGTVKLHFMKQYNKFTDIDYAHADMM	not soluble
MLPKTWRENFFVLVREVKNLRATAKKISRHFFRKYEPQPGVFWFVFHLSRSHPFPFLKPLLSGDQARGAATPTPCMRTHLFHRIDPIKSEMGGLSTGYITFVWRGVHPRIGPIAAESLTDGKEEDEALSCGYII	not soluble
MSSLTDKTRNGALKRNLLRQMLKASVFKFGEFQLKSGQISPIYIDLRECFGHPGLLMLISEAISKQVEISEVQYAGVLGIPYAALPYASVAAGNYLKKPLLIVRKEAKSYGTKKLIEGLYQPNDRLILIEDVVTTGGSILDVVKVLHTENLVASDVFCILDREQGGRQKLQDAGVTLHSLLDMQTVLTFLYSTGAIGDEQWHGIVQALNLPYTSPTKLEINSELENLSSLPYVENVRTPLAERESLTESALIKKILGIMRRKKSNLCLAVDYTTVEQCLQMIELAGPFVLAIKLHADAITDFNEEFTRKLTTMANDMDFIIFEDRKFGDTGNTNLLQLTGAQKIANWADVVTVHAVQGSDSIAGVFRKLAKDPTYRLSGVLLIAQLSTKGSLTALEGYTETAVKIANENRDVISGFITQTRVSACSDLLNWTPGVNLDAKSDSAGQQWRGVDEAIEVQQNDIIIVGRGVTSSSEPVQQLKRYRQIAWDALTRSDDSI	not soluble
MGSDKIHHHHHHMKAYAFGFPKIGEKREFKKALEDFWKGKITEEQFEEEMNKLRMYMVENYRKNVDVIPSNELSYYDFVLDTAVMVGAVPERFGEYRGLSTYFDMARGGKALEMTKFFNTNYHYLVPEIETEEFYLLENKPLEDYLFFKSKGIETAPWVIGPFTFLYLSKRNGEWIRRPNQMEKLLESLVSVYKEVFEKLVENGCKEILVNEPAFVCDLEKAHWDLILNVYRELSEFPLTVFTYYDSVSDYEACVSLPVKRLHFDFVSNEENLKNLEKHGFPEDKKLVAGVINGRQPWKVDLRKVASLVEKLGASAISNSCPLFHLPVTLELENNLPGGLKEKLAFAKEKLEELKMLKDFLEGKTFDLPNVSFEDFAVDLQAVERVRNLPEDSFRREKEYTERDRIQRERLNLPLFPTTTIGSFPQTPEVRKMRSKYRKGEISKEEYEAFIKEQIKKAIELQEEIGLDVLVHGEFERTDMVEFFAEKLNGIATTQNGWVLSYGSRCYRPPIIYGTVTRPEPMTLKEITYAQSLTEKPVKGMLTGPVTIMSWSYYREDIPEREIAYQIALAINEEVKDLEEAGIKIVQIDEPAFREKAPIKKSKWPEYFEWAINAFNLAANARPETQIHAHMCYSDFNEIIEYIHQLEFDVISIEASRSKGEIISAFENFKGWIKQIGVGVWDIHSPAVPSINEMREIVERVLRVLPKELIWINPDCGLKTRNWDEVIPSLRNMVALAKEMREKFES	not soluble
MTVRVGDPELVLDPYDYDFHEDPYPYYRRLRDEAPLYRNEERNFWAVSRHHDVLQGFRDSTALSNAYGVSLDPSSRTSEAYRVMSMLAMDDPAHLRMRTLVSKGFTPRRIRELEPQVLELARIHLDSALQTESFDFVAEFAGKLPMDVISELIGVPDTDRARIRALADAVLHREDGVADVPPPAMAASIELMRYYADLIAEFRRRPANNLTSALLAAELDGDRLSDQEIMAFLFLMVIAGNETTTKLLANAVYWAAHHPGQLARVFADHSRIPMWVEETLRYDTSSQILARTVAHDLTLYDTTIPEGEVLLLLPGSANRDDRVFDDPDDYRIGREIGCKLVSFGSGAHFCLGAHLARMEARVALGALLRRIRNYEVDDDNVVRVHSSNVRGFAHLPISVQAR	not soluble
MSTARFADPDQIRAGFSRAMSQMYQHEVPLYGTLMELVSEVNAQVMSRDSQVLNSLRQTGEIQRLDMERHGAIRVGTAQELATLARLFAVMGMQPVGYYDLTAAGVPVHSTAFRAVHEQALQVSPFRVFTSLLRLELIESDSLREFASRVLAKRTIFTPGALALIEKHEADGGLSEPDAAEFIQQALETFRWHHTATVSLDEYRQLNAQHRLIADVVAFRGPHINHLTPRTLDIDAVQSGMPGKGITPKAVVEGPPPRQCPILLRQTSFKALEEPISFIGQGGSQSGSHSARFGEIEQRGAALTPKGRELYDRLLNEARDALGEFPNEANAVRYAGLLEKAFQAFPDSHDEMRAQGLAYFRYFPTDTGVAVRVSGTLEQLIEAGHVRFEPLAYEDFLPVSAAGIFQSNLGDNAQAHYAANSNRQDFERALGRGTLDELALYADTQRRSLEDCAEVLGLNESLEHHHHHH	not soluble
MSWNCLLPIFVGFFVLFYEGQCQPARWTQQPGGQNPQPGASFPPNMNPVTNGPGSWTQKPGGYNNGPGSGSFKSTKPPRGLVYYQPKNYPYKPGKGGKYMHADPILPNANERLSAQSDQYTVSDGITGDWSKIVANSKGFYVLHPVQTKSEEDIFDPYTIGQVIGYLYEVQEFGGKKPPSGKYTIELMGKKIPDHLKKKRSLFGSPDRTRRATLVFKKKEQVKSTL	not soluble
MNQPDISTLVQRIEQLELNQSRLRILLSHAPEKHKAFDKACYVANLSFEQEAHVRQTILDFLDSDKEDINELLSSIEAIVRYTVDAKSLISGFKMRGTAPDRWKQIDPHNEC	not soluble
MTHLLETKNLSVSFGEHHVIKDVNLIVQKGKLISIIGPNGAGKTTLFNLLSGQISPTKGEVYFKGQEITKLSISDRTRLGIGRSFQLTNIFPELTVLENVRLSVQSFVQDYYSFFPSSAKFKQQVGEARRFLKTVLLQEKEHVLAKDLAHGEKRKLELAMLLALKTDVLLLDEPTAGISVEEVPAILQVIENIKKHPESTIVLIEHKMDMVLGLSDHLIVLFHGELLAEGMPEEIMKDERVQSAYLGGLYSGTITSE	not soluble

— the DeepSol protein solubility set
